Assay results published in patent US20100124555A1, “Compositions and Methods for Treating Pancreatic Tumors” (UNIVERSITE DE LA MEDITERRANEE, priority 2007, published 2010).

System: SOJ-6 cells
Assay: Cell-cycle distribution by propidium iodide flow cytometry, SOJ-6
Format: cell-based, human
Settings: SOJ-6 after mAb16D10 treatment
Procedure: Cells were washed twice using cold PBS 1×/BSA 0.2%/Sodium Azide 0.05% buffer. Staining was performed using the different antibodies during 1H at 4° C. into round 96-well plates using 5×10^4 cells per well. Cells were then washed twice before being incubated with secondary reagents. After two washes, cells were re-suspended before acquisition into PBS1X/Formaldehyde 1%. Stainings were acquired on a FACScan (Becton Dickinson, San Jose, Calif.) and results were analysed using FlowJo Software. SOJ-6 cells pre-treated or not with 5 μg/ml aphidicolin (a reversible inhibitor of eukaryotic nuclear DNA replication, which blocks the cell cycle at early S-phase) for 6 h, were then incubated with mAb16D10 or irrelevant IgM used as a negative control. Cells were released from culture plates with a non-enzymatic cell dissociation solution, washed with PBS^+/+, fixed with 70% ethanol at −20° C. and washed with PBS^+/+. The cells were resuspended in a solution of 400 μg/ml propidium iodide in isoflow buffer and were incubated for 30 min at room temperature as already described [Mi-Lian et al., 2004]. Cell-cycle distribution was detected by flow cytometry and analyzed by Mod Fit software (Verity Software House, Inc., Topsham, Me.). The red fluorescence of single events was recorded using excitation and emission at 488 nm and at 610 nm respectively, to measure the DNA index.
We next wished to know whether mAb16D10-induced apoptosis was due, in part, to the arrest of the cell cycle. Cell cycle distribution of the SOJ-6 cells after treatment was assessed by observing DNA profiles following SOJ-6 cells pre-treated not or with aphidicolin, treated not or with mAb16D10. Each experiment was carried out in triplate. We used a specific DNA marker, Propidium Iodide, to determine the different phases of the cell cycle by flow cytometry. […] Indeed, the shift of cells from the G2/M to the G1/S phase and from the G1/S to the apoptosis was also observed following aphidicolin treatment. […]

B1: 16D10: IgM monoclonal antibody recognizing FAPP/BSDL; producing cells deposited with the CNCM under the number I-3188 (antibody, listed as Mus musculus, V domains shown)
VH: QVQLQQSDAELVKPGASVKISCKASGYTFTDHAIHWVKQKPEQGLEWIGYISPGNDVIKFNEKFKGKATLTADKSSSTAYMQLNSLTSEDSAVYFCKRSEGGVFDYWGQGTTLTVS
VL: NIMMTQSPSSLAVSAGEKVTMSCKSSQSVLYSSNQKNFLAWYQQKPGQSPKLLIYWASTRESGVPDRFTGSGSGTDFTLTISSVQAEDLAVYYCHQYLSSYTFGGGTKLEIK
In the case of B1, the apoptotic cells is reported as 6%, the “cells in G1/S” value is reported as 96% and the “cells in G2/M phase” value is reported as 4%.
